The target in the experiment is Pim-1 kinase (SPR analysis) (UniProt P11309 1-313). The experiment can be described thus: SPR. On the technique in general: Surface plasmon resonance follows binding to a sensor surface in real time, without labels.

For orientation: Kd means the constant that tells how readily two partners part at equilibrium. Low values mean tighter binding, high ones weaker binding.

Chain of Pim-1 kinase (SPR analysis) (P11309 whole entry): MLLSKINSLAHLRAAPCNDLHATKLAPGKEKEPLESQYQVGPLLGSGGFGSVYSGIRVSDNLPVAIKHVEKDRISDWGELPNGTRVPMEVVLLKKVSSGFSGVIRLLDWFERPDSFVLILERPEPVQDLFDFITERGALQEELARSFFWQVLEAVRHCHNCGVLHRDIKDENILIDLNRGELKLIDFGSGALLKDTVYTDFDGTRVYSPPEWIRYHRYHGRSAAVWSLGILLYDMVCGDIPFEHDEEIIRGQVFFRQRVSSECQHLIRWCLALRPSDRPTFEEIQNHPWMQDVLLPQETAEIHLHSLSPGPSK

On to RRRRRRRRKKPGLDRDQT [R8-T198mu peptide], for which binding was characterised by a dissociation constant (Kd) of 4.25 µM.

The values above are taken from PMC3024764 (The Journal of Biological Chemistry, 2010).
